The source of these data is patent publication US20230272067A1 (published 2023).

Read-outs that look alike come from different tables or passages of the source.

The target of test [1] is T1, extracellular domain (ECD) of mouse TIGIT (mouse, UniProt P86176 29-148, biotinylated (site not stated)).
T1 chain: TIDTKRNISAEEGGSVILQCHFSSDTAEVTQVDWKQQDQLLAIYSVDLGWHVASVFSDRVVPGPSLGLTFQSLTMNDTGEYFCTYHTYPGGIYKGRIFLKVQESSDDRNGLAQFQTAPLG
The experiment in a line: SPR (Biacore T200, multi-cycle). (Surface plasmon resonance follows binding to a sensor surface in real time, without labels.)

The target of test [2] is T2, extracellular domain (ECD) of human TIGIT (human, UniProt Q495A1 22-141, biotinylated (site not stated)).
T2 chain: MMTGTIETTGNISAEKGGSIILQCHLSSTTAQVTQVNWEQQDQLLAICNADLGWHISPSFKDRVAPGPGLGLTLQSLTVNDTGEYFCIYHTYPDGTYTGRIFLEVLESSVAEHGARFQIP
The experiment in a line: SPR (Biacore T200, multi-cycle).

Test [3] has as its target T1, extracellular domain (ECD) of mouse …. The experiment in a line: SPR (Biacore T200, multi-cycle).
The target in test [4] is T2, extracellular domain (ECD) of human …. The experiment in a line: SPR (Biacore T200, multi-cycle).
Test [5] shares this target. The experiment in a line: competition ELISA; competition with hCD155.
Test [6] addresses T1, extracellular domain (ECD) of mouse …. The experiment in a line: competition ELISA; competition with mCD155.
Test [7] has as its target T2, extracellular domain (ECD) of human …. The experiment in a line: competition ELISA; competition with hCD112. In general terms: ELISA stands for enzyme-linked immunosorbent assay.

B1: T4M (antibody, V domains shown)
VH: QVQLQQWGAGLLKPSETLSLTCAVYGGSFNDYYWTWIRQAPGKGLEWIGEITHSGSADYNPSLKSRVTISVDTSKNQFSLKLRSVTAADTAVYYCARGLKLFRWKKTTVTTFPPYYYGMDVWGQGTTVTVSS
VL: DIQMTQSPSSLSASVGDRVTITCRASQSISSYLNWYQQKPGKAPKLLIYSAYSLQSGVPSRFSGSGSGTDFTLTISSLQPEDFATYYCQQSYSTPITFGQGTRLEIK
As for B1, the values for the Kd in test [1] and in test [2] were 2.74 nM and 8.75 nM, respectively.

B2: CS19ME3-23 (antibody, V domains shown)
VH: EVQLLESGGGLVQPGGSLRLSCAASGFTFSSYAMHWVRQAPGKGLEWVAVISYDGSNKYYADSVKGRFTISRDNSKNTLYLQMNSLRAEDTAVYYCATLEGGGRYYDFWSADYWGQGTLVTVSS
VL: QSALTQPRSVSGSPGQSVTISCTGTSSDVGGYNFVSWYQQHPGKAPKLLIYAVSKRPSGVPDRFSGSKSGNTASLTISGLQAEDEADYYCSSYSSESTRVVFGGGTKLTVL
As to B2, the Kd (in general, the equilibrium constant for the complex coming apart) stood at 21.6 nM in test [3] and 3.49 nM in test [4].

B3: CS19ME3-30-N (antibody, V domains shown)
VH: QVQLVESGGGVVQPGRSLRLSCAASGFTFSSYAMHWVRQAPGKGLEWVAVISYDGSNKYYADSVKGRFTISRDNSKNTLYLQMNSLRAEDTAVYYCATLEGGGRYYDFWSADYWGQGTLVTVSS
VL: QSALTQPRSVSGSPGQSVTISCTGTSSDVGGYNFVSWYQQHPGKAPKLLIYAVSNRPSGVPDRFSGSKSGNTASLTISGLQAEDEADYYCSSYSSESTRVVFGGGTKLTVL
Take B3: the values for the IC50 in test [5], in test [6] and in test [7] were 1.18 µg/mL, 0.67 µg/mL and 0.9 µg/mL, respectively. Further, the Kd in test [3] was determined as 2.85 nM; in test [4] it was 3.36 nM.
